{"source": "patent US8632989B1", "about": "“Mutant insulin degrading enzyme and methods of use” (University of Kentucky Research Foundation, priority 2011, dated 2014)", "key": {"[1]": {"target": "T1, Abz-GGFLRKHGQ-EDDnp (Rattus norvegicus, UniProt P35559)", "T1 construct": "begin at methionine 42, which is believed to be the in vivo start site, and extend through the native C-terminal residue leucine 1019; hexahistidine with linker holding a TEV protease site (N, cleaved yes); made in house; host or cells: SF9 insect cells (baculovirus, pFastBac HTb)", "T1 sequence (P35559 42-1019)": "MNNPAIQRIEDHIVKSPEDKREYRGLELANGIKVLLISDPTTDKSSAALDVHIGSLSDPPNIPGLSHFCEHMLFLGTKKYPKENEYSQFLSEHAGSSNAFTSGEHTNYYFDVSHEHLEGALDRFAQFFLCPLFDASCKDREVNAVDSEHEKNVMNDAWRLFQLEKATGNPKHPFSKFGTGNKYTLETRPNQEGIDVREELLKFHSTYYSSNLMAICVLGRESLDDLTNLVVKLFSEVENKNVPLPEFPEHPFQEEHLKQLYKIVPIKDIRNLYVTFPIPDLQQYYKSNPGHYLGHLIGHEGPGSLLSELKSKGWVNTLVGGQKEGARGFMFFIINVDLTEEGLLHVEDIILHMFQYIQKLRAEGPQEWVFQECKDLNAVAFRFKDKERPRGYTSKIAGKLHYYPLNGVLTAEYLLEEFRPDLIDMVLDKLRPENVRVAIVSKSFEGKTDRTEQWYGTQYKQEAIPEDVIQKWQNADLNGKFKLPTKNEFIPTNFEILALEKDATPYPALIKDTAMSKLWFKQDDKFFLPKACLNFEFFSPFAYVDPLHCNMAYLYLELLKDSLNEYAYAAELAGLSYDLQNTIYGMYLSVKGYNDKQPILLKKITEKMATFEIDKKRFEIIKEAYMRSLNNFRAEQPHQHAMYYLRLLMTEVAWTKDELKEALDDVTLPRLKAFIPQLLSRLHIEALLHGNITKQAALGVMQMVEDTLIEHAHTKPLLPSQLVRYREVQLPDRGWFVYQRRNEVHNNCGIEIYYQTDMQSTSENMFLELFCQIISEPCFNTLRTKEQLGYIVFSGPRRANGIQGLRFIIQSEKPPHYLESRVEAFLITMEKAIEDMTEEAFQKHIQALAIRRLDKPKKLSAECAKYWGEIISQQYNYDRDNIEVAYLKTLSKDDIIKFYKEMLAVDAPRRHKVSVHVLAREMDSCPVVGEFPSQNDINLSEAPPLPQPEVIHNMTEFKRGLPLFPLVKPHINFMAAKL", "conditions": "reference [15]; cited from earlier work"}, "[2]": {"test_system": "Saccharomyces cerevisiae", "assay": "IDE activity assay in yeast, serial dilution mating test", "format": "cell-based", "conditions": "MATa cells deficient for Axl1p and Ste23p, plasmid-encoded IDE", "experimental": "Panel A depicts immunoblot of yeast-expressed IDE and IDE^K898A,K899A,S901A. Equivalent percentage amounts of total cellular extracts from yeast containing an empty expression vector or plasmids encoding IDE or the IDE^K898A,K899A,S901A mutant were analyzed by SDS-PAGE and immunoblotting using an IDE-specific antibody. […] An excess of MATa yeast were mixed with decreasing numbers of MATa cells deficient for Axl1p and Step 23p that were transformed with either an empty expression vector or a vector encoding IDE or IDE^K898A,K899A,S901A as indicated. Mating, which leads to colony growth, is dependent on production of mature a-factor pheromone by plasmid-encoded IDE. […] Concentrated samples of a-factor recovered from yeast bearing the indicated expression vector were spotted at the indicated dilutions on a lawn of RC757 MATa cells, which undergo growth arrest upon exposure to a-factor pheromone. […]\nThe assays take advantage of the ability of IDE, in lieu of the yeast M16 metallopeptidases Axl1p and Step 23p, to participate in the proteolytic maturation of yeast a-factor mating pheromone. […] Growth of diploid colonies, indicative of mating, was scored 3 days after incubation of plates at 30° C. […] Results of mating tests and halo assays were recorded by scanning plates with a Microtek flatbed scanner and importing digitized images into Photoshop and PowerPoint."}}, "data": [{"molecule": "IDE: Native rat insulin degrading enzyme (SEQ ID NO:1), expressed as hexahistidine fusion protein in Sf9 insect cells (protein, listed as Rattus norvegicus, hexahistidine tag; wild-type Insulin Degrading Enzyme (IDE) from rat) MRNGLVWLLHPALPSTLHSILGARPPPVKRLCGFPKQIYSTMNNPAIQRIEDHIVKSPEDKREYRGLELANGIKVLLISDPTTDKSSAALDVHIGSLSDPPNIPGLSHFCEHMLFLGTKKYPKENEYSQFLSEHAGSSNAFTSGEHTNYYFDVSHEHLEGALDRFAQFFLCPLFDASCKDREVNAVDSEHEKNVMNDAWRLFQLEKATGNPKHPFSKFGTGNKYTLETRPNQEGIDVREELLKFHSTYYSSNLMAICVLGRESLDDLTNLVVKLFSEVENKNVPLPEFPEHPFQEEHLKQLYKIVPIKDIRNLYVTFPIPDLQQYYKSNPGHYLGHLIGHEGPGSLLSELKSKGWVNTLVGGQKEGARGFMFFIINVDLTEEGLLHVEDIILHMFQYIQKLRAEGPQEWVFQECKDLNAVAFRFKDKERPRGYTSKIAGKLHYYPLNGVLTAEYLLEEFRPDLIDMVLDKLRPENVRVAIVSKSFEGKTDRTEQWYGTQYKQEAIPEDVIQKWQNADLNGKFKLPTKNEFIPTNFEILALEKDATPYPALIKDTAMSKLWFKQDDKFFLPKACLNFEFFSPFAYVDPLHCNMAYLYLELLKDSLNEYAYAAELAGLSYDLQNTIYGMYLSVKGYNDKQPILLKKITEKMATFEIDKKRFEIIKEAYMRSLNNFRAEQPHQHAMYYLRLLMTEVAWTKDELKEALDDVTLPRLKAFIPQLLSRLHIEALLHGNITKQAALGVMQMVEDTLIEHAHTKPLLPSQLVRYREVQLPDRGWFVYQRRNEVHNNCGIEIYYQTDMQSTSENMFLELFCQIISEPCFNTLRTKEQLGYIVFSGPRRANGIQGLRFIIQSEKPPHYLESRVEAFLITMEKAIEDMTEEAFQKHIQALAIRRLDKPKKLSAECAKYWGEIISQQYNYDRDNIEVAYLKTLSKDDIIKFYKEMLAVDAPRRHKVSVHVLAREMDSCPVVGEFPSQNDINLSEAPPLPQPEVIHNMTEFKRGLPLFPLVKPHINFMAAKL", "values": [{"measurement": "increase of cleavage rate of Abz-GGFLRKHGQ-EDDnp by ATP", "setting": "[1]", "result": "more than 40 fold"}, {"measurement": "mating promoted in yeast", "setting": "[2]", "result": "promoted mating to a greater extent"}]}]}
